In patent US20150218281A1 (Ablynx, published 2015):
Where a chain is given by its changes, count along the chain named. Values belong to the binder of their own block, whether it stands above or below them.

What was measured:
[1] = target: T1, biotinylated hOX40L (R&D Systems, biotinylated in house) (human, UniProt P23510 51-183, biotinylated with Sulfo-NHS-LC-Biotin, sites not stated); experiment: AlphaScreen, 31 pM biotinylated hOX40L + 80 pM OX40/Fc
T1 construct: same bought protein as m10, biotinylated; also called biotinylated OX40L
T1 sequence: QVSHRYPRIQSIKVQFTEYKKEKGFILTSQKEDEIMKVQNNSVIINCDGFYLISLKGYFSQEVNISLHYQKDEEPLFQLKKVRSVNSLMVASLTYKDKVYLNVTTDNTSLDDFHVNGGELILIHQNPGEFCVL
Procedure: (§1) Next, streptavidin donor beads were added and incubated for an additional 1 hour. Fluorescence was measured by reading plates on the EnVision Multilabel Plate Reader using an excitation wavelength of 680 nm and an emission wavelength of 520 nm.

[2] = target: T2, recombinant human OX40L (extracellular domain, R&D Systems) (human, UniProt P23510 51-183); experiment: SPR, second injection after competitor OX40L01B11
T2 construct: also called hOX40L; rec. hOX40L
T2 sequence: T1 sequence
Procedure: (§2) In addition, it was investigated to what extend the 7 anti-OX40L Nanobodies have a different or identical or overlapping epitope. Standard conditions were as described above. […] 1300 RU. A dual injection was performed at 10 μl/min for 2 min, starting with 500 nM of the first Nanobody, followed by 500 nM of the second Nanobody. After 10 min dissociation, regeneration of the surface was performed by injection of 50 mM NaOH for 5-20 sec at 100 μl/min.

[3] = target: T3, human Receptor Activator for Nuclear Factor kappa B Ligand (human, UniProt O14788 143-317, limits assumed); experiment: competition ELISA on neutravidin captured biotinylated hOX40L
T3 construct: also called hRANKL; RANKL
T3 sequence (looked up): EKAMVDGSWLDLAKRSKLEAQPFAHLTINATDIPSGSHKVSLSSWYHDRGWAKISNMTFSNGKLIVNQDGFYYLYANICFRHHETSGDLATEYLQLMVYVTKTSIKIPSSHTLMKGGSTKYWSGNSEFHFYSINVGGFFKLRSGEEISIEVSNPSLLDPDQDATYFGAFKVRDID
Procedure: (§3) The binding of OX40L blocking Nanobodies to other TNF family members was tested in a competition ELISA.
(§4) Detection was done using sTMB (SDT Reagents, Baesweiler, Germany), the reaction was stopped with 1M HCl and absorbance was determined at 450 nm.

hCD30L = target: T4, hCD30L (human, UniProt P32971 63-234); experiment: as above
T4 sequence (looked up): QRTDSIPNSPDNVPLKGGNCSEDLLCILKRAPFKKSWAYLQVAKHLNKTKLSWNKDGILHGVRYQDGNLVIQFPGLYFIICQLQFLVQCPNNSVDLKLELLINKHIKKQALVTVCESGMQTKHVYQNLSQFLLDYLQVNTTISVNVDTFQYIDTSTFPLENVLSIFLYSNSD
Procedure: as §3, §4

hCD40L = target: T5, hCD40L (human, UniProt P29965 113-261); experiment: as above
T5 sequence (looked up): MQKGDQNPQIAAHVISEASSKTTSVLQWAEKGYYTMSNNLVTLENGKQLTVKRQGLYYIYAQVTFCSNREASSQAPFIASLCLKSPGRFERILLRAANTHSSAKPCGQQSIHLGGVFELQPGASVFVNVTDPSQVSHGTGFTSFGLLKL
Procedure: as §3, §4

hTNF-alpha = hTNF-alpha (human, UniProt P01375 77-233); experiment: as above
Procedure: as §3, §4

[4] = target: T6, human tumor necrosis factor-related apoptosis inducing ligand (human, UniProt P50591 114-281); experiment: as above
T6 construct: also called hTRAIL; TRAIL
Procedure: as §3, §4

[5] = target: T1, biotinylated hOX40L (R&D Systems, …); experiment: AlphaScreen, 120 pM biotinylated hOX40L + 0.2 nM hOX40/Fc
Procedure: as §1

[6] = target: T2, recombinant human OX40L (extracellular …); experiment: SPR, second injection after competitor OX40L18E09
Procedure: as §2

[7] = target: T2, recombinant human OX40L (extracellular …); experiment: SPR, after second injection of buffer HBS-EP+
Procedure: as §2

[8] = target: T7, full length human OX40L expressed on CHO cells (human, UniProt P23510 1-183); experiment: competition FACS, 3.1 nM hOX40/Fc on hOX40L expressing cells
T7 construct: CHO K1 stably transfected as described for CAKI cells; also called CHO-hOX40L; hOX40L expressing CHO cells
T7 sequence: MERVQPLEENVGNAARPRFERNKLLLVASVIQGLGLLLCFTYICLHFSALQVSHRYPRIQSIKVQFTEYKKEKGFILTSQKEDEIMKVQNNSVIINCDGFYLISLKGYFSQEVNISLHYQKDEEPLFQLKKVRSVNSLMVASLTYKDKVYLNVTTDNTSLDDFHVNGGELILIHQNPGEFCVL

[9] = target: T7, full length human OX40L expressed on …; experiment: cell-based or functional assay
[10] = target: T2, recombinant human OX40L (extracellular …); experiment: SPR, second injection after competitor OX40L19D08
Procedure: as §2

[11] = target: T2, recombinant human OX40L (extracellular …); experiment: SPR, second injection after competitor OX40L15B07
Procedure: as §2

[12] = target: T2, recombinant human OX40L (extracellular …); experiment: SPR, second injection after competitor OX40L19A07
Procedure: as §2

[13] = target: T2, recombinant human OX40L (extracellular …); experiment: SPR, second injection after competitor OX40L01E10
Procedure: as §2

[14] = target: T7, full length human OX40L expressed on …; experiment: FACS binding to CHO cells, anti-c-myc detection
Procedure: (§5) Transfection of CHO K1 with the respective expression plasmid DNA and selection of clones with high expression levels was performed as described in Example 1. Binding of the Nanobodies to the cell surface expressed OX40L was assessed by FACS analysis of cells as described below.
(§6) After washing bound Nanobodies were detected in FACSArray™ using mouse anti-c-myc and PE conjugated goat anti-mouse IgG.

[15] = target: T8, cynomolgus OX40L expressed on CHO cells (cynomolgus monkey, UniProt P23510 1-183 (human entry)); experiment: FACS binding to CHO cells, anti-c-myc detection
T8 construct: also called cynoOX40L; CHO-cynoOX40L
T8 chain: T7 sequence with R55Q, K73E
Procedure: as §5, §6

[16] = target: T2, recombinant human OX40L (extracellular …); experiment: SPR, second injection after competitor OX40L01E07
Procedure: as §2

[17] = target: T7, full length human OX40L expressed on …; experiment: competition FACS with hOX40/Fc on CHO-hOX40L
Procedure: The competition FACS assay was performed as described in example 2.

T6 sequence (P50591 114-281 limits assumed): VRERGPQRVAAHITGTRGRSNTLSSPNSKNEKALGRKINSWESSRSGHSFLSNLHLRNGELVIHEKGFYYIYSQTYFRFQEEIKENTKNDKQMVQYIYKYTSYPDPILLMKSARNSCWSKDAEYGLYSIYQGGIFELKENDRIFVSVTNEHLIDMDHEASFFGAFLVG
Chain of hTNF-alpha (P01375 77-233 limits assumed): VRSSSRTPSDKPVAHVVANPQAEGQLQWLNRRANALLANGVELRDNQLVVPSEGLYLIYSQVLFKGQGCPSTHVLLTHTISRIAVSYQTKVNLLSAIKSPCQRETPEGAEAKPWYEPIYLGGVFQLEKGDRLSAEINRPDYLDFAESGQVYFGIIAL

IC50 [1]: 0.133 nM
Binding Level sample 2 (RU) [2]: 468 RU
Binding Level sample 2 - sample 1 (RU) [2]: 159 RU
IC50 [5]: 0.285 nM
Binding Level sample 2 (RU) [6]: 224 RU
Binding Level sample 2 - sample 1 (RU) [6]: 33 RU
Binding Level sample 2 (RU) [7]: 184 RU
Binding Level sample 2 - sample 1 (RU) [7]: -38 RU
IC50 [8]: 3.31 nM
IC50, IL4 production, T-cell activation assay, donor 1 [9]: 90 nM
IC50, IL4 production, T-cell activation assay, donor 2 [9]: 132 nM
IC50, IL4 production, T-cell activation assay, donor 3 [9]: 36 nM
IC50, IL4 production, T-cell activation assay, donor 4 [9]: 96 nM
Binding Level sample 2 (RU) [10]: 236 RU
Binding Level sample 2 - sample 1 (RU) [10]: 7 RU
Binding Level sample 2 (RU) [11]: 239 RU
Binding Level sample 2 - sample 1 (RU) [11]: 42 RU
Binding Level sample 2 (RU) [12]: 224 RU
Binding Level sample 2 - sample 1 (RU) [12]: 47 RU
Binding Level sample 2 (RU) [13]: 275 RU
Binding Level sample 2 - sample 1 (RU) [13]: 49 RU
EC50 [14]: 2.85 nM
EC50 [15]: 3.4 nM
Binding Level sample 2 (RU) [16]: 187 RU
Binding Level sample 2 - sample 1 (RU) [16]: 3 RU
IC50 [17]: 4 nM
B1: OX40L19D08 (VHH)
VHH: EVQLVESGGGLVQAGASLRLSCAASGRRFISNYAMGWFRQAPGQERAFVAAISRSGSITYYTDSVKGRFSISRDYAKSTVYLQMDNLKPEDTAVYYCAADGGAVRDLTTNLPDYWGRGTQVTVSS
notes: monovalent Nanobody from E. coli; not shown: C-terminal c-myc and His6 tag
binding result [3]: no binding (tested: starting from 100 fold molar excess)
binding result (hCD30L): no binding (tested: starting from 100 fold molar excess)
binding result (hCD40L): no binding (tested: starting from 100 fold molar excess)
binding result (hTNF-alpha): no binding (tested: starting from 100 fold molar excess)
binding result [4]: no binding (tested: starting from 100 fold molar excess)

IC50 [1]: 0.355 nM
Binding Level sample 2 (RU) [2]: 371 RU
Binding Level sample 2 - sample 1 (RU) [2]: 70 RU
IC50 [5]: 0.54 nM
Binding Level sample 2 (RU) [6]: 194 RU
Binding Level sample 2 - sample 1 (RU) [6]: 2 RU
Binding Level sample 2 (RU) [7]: 160 RU
Binding Level sample 2 - sample 1 (RU) [7]: -15 RU
IC50 [8]: 16.6 nM
IC50, IL4 production, T-cell activation assay, donor 1 [9]: 596 nM
IC50, IL4 production, T-cell activation assay, donor 2 [9]: 618 nM
Binding Level sample 2 (RU) [10]: 205 RU
Binding Level sample 2 - sample 1 (RU) [10]: -24 RU
Binding Level sample 2 (RU) [11]: 207 RU
Binding Level sample 2 - sample 1 (RU) [11]: 9 RU
Binding Level sample 2 (RU) [12]: 183 RU
Binding Level sample 2 - sample 1 (RU) [12]: 6 RU
Binding Level sample 2 (RU) [13]: 239 RU
Binding Level sample 2 - sample 1 (RU) [13]: 12 RU
EC50 [14]: 5.67 nM
EC50 [15]: 5.34 nM
Binding Level sample 2 (RU) [16]: 179 RU
Binding Level sample 2 - sample 1 (RU) [16]: -3 RU
IC50 [17]: 13 nM
B2: OX40L19A07 (VHH)
VHH: EVQLVESGGGLVQAGGSLRLSCAASGFTLDDYAIAWFRQAPGKEREGVSRIKISNGRTTYAGSVKGRFTISSDNAKNTVYLQMNSLNAEDTAVYYCAADRSSLLFGSNWDRKARYDYWGQGTQVTVSS
notes: as for B1
binding result [3]: no binding (tested: starting from 100 fold molar excess)
binding result (hCD30L): no binding (tested: starting from 100 fold molar excess)
binding result (hCD40L): no binding (tested: starting from 100 fold molar excess)
binding result (hTNF-alpha): no binding (tested: starting from 100 fold molar excess)
binding result [4]: no binding (tested: starting from 100 fold molar excess)

IC50 [1]: 0.041 nM
Binding Level sample 2 (RU) [2]: 312 RU
Binding Level sample 2 - sample 1 (RU) [2]: -7 RU
IC50 [5]: 0.112 nM
Binding Level sample 2 (RU) [6]: 195 RU
Binding Level sample 2 - sample 1 (RU) [6]: 5 RU
Binding Level sample 2 (RU) [7]: 168 RU
Binding Level sample 2 - sample 1 (RU) [7]: -16 RU
IC50 [8]: 1.73 nM
IC50, IL4 production, T-cell activation assay, donor 1 [9]: 36 nM
IC50, IL4 production, T-cell activation assay, donor 2 [9]: 45 nM
IC50, IL4 production, T-cell activation assay, donor 3 [9]: 36 nM
IC50, IL4 production, T-cell activation assay, donor 4 [9]: 49 nM
Binding Level sample 2 (RU) [10]: 225 RU
Binding Level sample 2 - sample 1 (RU) [10]: -3 RU
Binding Level sample 2 (RU) [11]: 207 RU
Binding Level sample 2 - sample 1 (RU) [11]: 11 RU
Binding Level sample 2 (RU) [12]: 206 RU
Binding Level sample 2 - sample 1 (RU) [12]: 30 RU
Binding Level sample 2 (RU) [13]: 245 RU
Binding Level sample 2 - sample 1 (RU) [13]: 21 RU
EC50 [14]: 2.26 nM
EC50 [15]: 3.8 nM
Binding Level sample 2 (RU) [16]: 200 RU
Binding Level sample 2 - sample 1 (RU) [16]: 15 RU
IC50 [17]: 2 nM
B3: OX40L18E09 (VHH)
VHH: EVQLVESGGGLVQAGGSLRLSCAASRNILSLNTMGWYRHAPGKPRELVARISSNSKTDYADSVKGRFTISRDNAKNTVLLQMNSLKPEDTGVYYCNLNVWRTSSDYWGQGTQVTVSS
notes: as for B1
binding result [3]: no binding (tested: starting from 100 fold molar excess)
binding result (hCD30L): no binding (tested: starting from 100 fold molar excess)
binding result (hCD40L): no binding (tested: starting from 100 fold molar excess)
binding result (hTNF-alpha): no binding (tested: starting from 100 fold molar excess)
binding result [4]: no binding (tested: starting from 100 fold molar excess)
